Measurements reported in US20050182242A1, “Global analysis of protein activities using proteome chips” (priority 2001, published 2005).

Key:
PI(4)P liposomes = assay: Yeast proteome chip probed with PI(4)P liposomes; settings: liposome binding signal on yeast proteome chip, Cy3-streptavidin detection
Description: (§1) To identify PI-binding proteins in yeast, liposomes were used as probes because the liposome provides the most relevant physiological condition to assay the interactors. Six types of liposomes were used. Each contains phosphatidylcholine (“PC”) with 1% (w/w) N-(biotinoyl)-1,2-dihexadecanoyl-sn-glycero-3-phosphoethanolamine, triethylammonium salt (biotin DHPE). The biotinylated lipid serves as a label that can be detected by Cy3-streptavidin (21). In addition to PC, the five other liposomes contain either 5% (w/w) PI(3)P, PI(4)P, PI(3,4)P2, PI(4,5)P2, or PI(3,4,5)P3 (FIG. 3A).
(§2) The protein-liposome interaction was assayed as follows. Appropriate amounts of each lipid in chloroform were mixed and dried under nitrogen. The lipid mixture was resuspended in TBS buffer by vortexing. The liposomes were created by sonication. Blocked proteome chips were washed three to five times in PBS buffer, and the extra liquid on the glass surface was removed by tapping the slides vertically on a KIMWIPE™. 200 μl of liposome solution was added to the proteome chip and immediately covered by a hydrophobic plastic cover slip (GRACE BIO-LAB™, USA). After trapped air bubbles were removed, the chip was incubated in a humidity chamber at RT for one hour. To remove the cover slip, the chip was immersed into large volume of PBS buffer (50 ml), so that the slip would float away. The chip was then moved to a second PBS bath (>50 ml) and washed 3×5 min with shaking at RT. After removing extra liquid on the surface of the chip, about 100 μl of Cy3 or Cy5 conjugated streptavidin (PIERCE™, USA; 1:2000 to 1:4000 dilution) was added to the surface and covered by a hydrophobic plastic cover slip (GRACE BIO-LABS™, USA). The chip was incubated for greater than 30 min in the dark at RT. The chip was then washed as described above. To completely remove the liquid on the chip, the chip was spun to dryness at 1500-2000 rpm for 5-10 min at RT.
• 1. S. Fields, Y. Kohara, D. J. Lockhart, Proc. Natl. Acad. Sci. 96, 8825 (1999); A. Goffeau et al., Science 274, 563 (1996). • 2 P. Ross-Macdonald et al., Nature 402, 413 (1999); J. L., DeRisi, V. R. Iyer, P. O. Brown, Science 278, 680 (1997); E. A. Winzeler et al., Science 285, 901 (1999). P. Uetz et al., Nature 403, 623 (2000); T. Ito et al., Proc. Natl. Acad. Sci. USA. 97, 1143 (2000) • 3 H. Zhu, M. Snyder, Curr. Opin. Chem. Biol. 5, 40 (2001). • 4 M. R. Martzen et al., Science 286, 1153 (1999). • 5 H. Zhu et al., Nat. Genet. 26, 283 (2000). • 6 G. MacBeath, S. L. Schreiber, Science 289, 1760 (2000). • 7 A. Caveman, J. Cell Sci. 113, 3543 (2000). • 8 P. Arenkov et al., Anal. Biochem 278, 123 (2000). • 9 D. A. Mitchell, T. K. Marshall, R. J. Deschenes, Yeast 9, 715 (1993). The expression vector pEGH was created by inserting an RGS-HisX6 epitope tag between the GST gene and the polycloning site of pEG(KG). The yeast ORFs were cloned using the strategy described previously (5), except every step was done in a 96-well format. Plasmid DNAs confirmed by DNA sequencing were reintroduced into both yeast (Y258) and E. coli (DH5a). […] 0.1 mM calcium was present in buffers in all subsequent steps. The chip was washed three times with PBS at RT. Cy3-conjugated streptavidin (Jackson IR, USA) (1:5000 dilution) was added to the chip and incubated for 30 min at RT. After extensive washing, the chip was spun dry and scanned using a microarray scanner; the data was subsequently acquired with the GENEPIX™ array densitometry software (Axon, USA). • 12 S. S. Hook, A. R. Means, Annu. Rev. […]

PI(3)P liposomes = assay: Yeast proteome chip probed with PI(3)P liposomes; settings: liposome binding signal on yeast proteome chip, Cy3-streptavidin detection
Description: as §1
The protein-liposome interaction was assayed as follows. Appropriate amounts of each lipid in chloroform were mixed and dried under nitrogen. The lipid mixture was resuspended in TBS buffer by vortexing. The liposomes were created by sonication. Blocked proteome chips were washed three to five times in PBS buffer, and the extra liquid on the glass surface was removed by tapping the slides vertically on a KIMWIPE™. 200 μl of liposome solution was added to the proteome chip and immediately covered by a hydrophobic plastic cover slip (GRACE BIO-LAB™, USA). After trapped air bubbles were removed, the chip was incubated in a humidity chamber at RT for one hour. To remove the cover slip, the chip was immersed into large volume of PBS buffer (50 ml), so that the slip would float away. […]

PI(4,5)P2 liposomes [1] = assay: Nitrocellulose membrane assay: adhered PI(4,5)P2 liposomes probed with GST fusion proteins; assay type: binding; settings: dilution series, anti-GST antibodies, ECL
Description: A. PI(4,5)P2 liposomes were first adhered to a nitrocellulose membrane, which was blocked by BSA; a dilution series of Rim15p, Eno2p, and Hxk1p, and a GST control were used to probe the membrane. The bound proteins were detected using the anti-GST antibodies and an enhanced chemiluminescence (“ECL”) kit.
Therefore, six proteins, i.e., Rim15p, Eno2p, Hxk1p, Sps1p, Yg1059wp, and Gcn2p, were further tested for phosphoinositol binding using two types of standard assays (Williamson, 2000, Nat. Struct Biol. 7(10):834-7). For Rim15p, Eno2p, and Hxk1p, PI(4,5)P2 liposomes were first adhered to a nitrocellulose membrane, which was then blocked by BSA; different amounts of the GST fusion proteins and a GST control were used to probe the membrane, and bound proteins were detected using anti-GST antibodies. […] We also carried out the reverse assay for four GST fusion proteins, Rim15p, Sps1p, Yg1059wp, and Gcn2p (Guerra et al., 2000, Biosci. Rep. 20: 41). Different amounts of these purified proteins were spotted onto nitrocellulose filters and probed with the six different liposomes (FIG. 5B). The bound liposomes were detected using a horseradish peroxidase (“HRP”)-conjugated streptavidin.

PI(4,5)P2 liposomes [2] = assay: Yeast proteome chip probed with PI(4,5)P2 liposomes; settings: liposome binding signal on yeast proteome chip, Cy3-streptavidin detection
Description: as §1, §2
(§3) • 1. S. Fields, Y. Kohara, D. J. Lockhart, Proc. Natl. Acad. Sci. 96, 8825 (1999); A. Goffeau et al., Science 274, 563 (1996). • 2 P. Ross-Macdonald et al., Nature 402, 413 (1999); J. L., DeRisi, V. R. Iyer, P. O. Brown, Science 278, 680 (1997); E. A. Winzeler et al., Science 285, 901 (1999). P. Uetz et al., Nature 403, 623 (2000); T. Ito et al., Proc. Natl. Acad. Sci. USA. 97, 1143 (2000) • 3 H. Zhu, M. Snyder, Curr. Opin. Chem. Biol. 5, 40 (2001). • 4 M. R. Martzen et al., Science 286, 1153 (1999). • 5 H. Zhu et al., Nat. Genet. 26, 283 (2000). • 6 G. MacBeath, S. L. Schreiber, Science 289, 1760 (2000). • 7 A. Caveman, J. Cell Sci. 113, 3543 (2000). • 8 P. Arenkov et al., Anal. Biochem 278, 123 (2000). • 9 D. A. Mitchell, T. K. Marshall, R. J. Deschenes, Yeast 9, 715 (1993). The expression vector pEGH was created by inserting an RGS-HisX6 epitope tag between the GST gene and the polycloning site of pEG(KG). The yeast ORFs were cloned using the strategy described previously (5), except every step was done in a 96-well format. Plasmid DNAs confirmed by DNA sequencing were reintroduced into both yeast (Y258) and E. coli (DH5a). […] 0.1 mM calcium was present in buffers in all subsequent steps. The chip was washed three times with PBS at RT. Cy3-conjugated streptavidin (Jackson IR, USA) (1:5000 dilution) was added to the chip and incubated for 30 min at RT. After extensive washing, the chip was spun dry and scanned using a microarray scanner; the data was subsequently acquired with the GENEPIX™ array densitometry software (Axon, USA). • 12 S. S. Hook, A. R. Means, Annu. Rev. Pharmacol. Toxicol.41, 471 (2001). • 13 M. S. Cyert, R. Kunisawa, D. Kaim, J. Thorner, Proc. Natl. Acad. Sci. USA 88, 7376 (1991). • 14 D. A. Stirling, K. A. Welch, M. J. Stark, EMBO J. 13, 4329 (1994). • 15 F. Bohl, Kruse, EMBO J. 19, 5514 (2000); E. Bertrand et al., Mol. Cell 2, 437 (1998). • 16 D. C. Winter, E. Y. Choe, R. Li, Proc. Nat. Acad Sci. USA 96, 7288 (1999). • 17 C.

PI(3,4)P2 liposomes = assay: Yeast proteome chip probed with PI(3,4)P2 liposomes; settings: liposome binding signal on yeast proteome chip, Cy3-streptavidin detection
Description: as §1, §2, §3

RIM15: yeast protein kinase, regulator of glucose metabolism, GST-HisX6 fusion
PI(4)P (PI(4)P liposomes): 2349.00
PI(3)P (PI(3)P liposomes): 52.50
binding to PI(4,5)P2 liposomes on membrane (PI(4,5)P2 liposomes [1]): tightly bound PI(4,5)P2
PI(4, 5)P2 (PI(4,5)P2 liposomes [2]): 687.19
PI(3, 4)P2 (PI(3,4)P2 liposomes): 4941.00
